The source of these data is patent US20220241202A1, “METHOD AND VEHICLE FOR DELIVERING AGENTS ACROSS THE BLOOD-BRAIN BARRIER” (priority 2019, published 2022).

The subject of data set [1] is CAD cells. In words: EV secretion of GFP-tagged 72Q huntingtin^exon1 from CAD cells with or without β amyloid peptide. It counts as cell-based. Particulars: 12.5 μg/ml β amyloid peptide, added 6 hours after transfection, media collected at 48 hours. Here is the method:
CAD cells were transiently transfected with GFP-tagged 72Q huntingtin^exon1 and a vector control, CSPα, DnaJB2long, or DnaJB6long. 6 hours after transfection, the cells were treated with 12.5 μg/ml β amyloid peptide (Aβ) or left untreated. 48 hours after transfection, the media was collected, EVs were prepared, and EV secretion of GFP-tagged 72Q huntingtin^exon1 was measured.

Data set [2] deals with CAD cells. In words: Nanoscale flow cytometry of EVs secreted from CAD cells expressing GFP-72Q huntingtin^exon1. It counts as cell-based. The method, then:
(§1) Cell lines were transfected with the molecular chaperone CSPα and a GFP-tagged protein. CAD cells (catecholaminergic derived CNS cells) were the cell line utilized. Other cell lines, including patient-derived cell lines, may also be utilized. cDNAs encoding for myc-tagged CSPα or vector alone and GFP-72Q huntingtin^exon1 were transiently transfected with Lipofectamine™ 3000 (Invitrogen) in Opti-MEM™ medium. Media was changed to serum-free media 6 hours post-transfection. Media was collected 48 hours after transfection, spun at 300×g for 5 min to remove cell debris and evaluated without further processing by nanocyte tracking analysis, nanoscale flow cytometry analysis and dot blot analysis. For western blot analysis, EVs were isolated from the unfractionated media by exoquick precipitation solution (SBI) and solubilized in sample buffer. Following media collection, cell viability was determined using an XTT assay (New England Biolabs). When resveratrol was used, it was added to the serum-free media 6 hours post-transfection at the time of the media change.
For NTA and nanoscale flow cytometry analysis, all samples were diluted 25 fold using 0.2× phosphate buffered saline that had been filtered twice through 0.2 μm filter. For NTA analysis, all samples were analyzed using the Nanosight LM10 (405 nm laser, 60 mW, software version 3.00064). Samples were analyzed in triplicate for 60 seconds per replicate with a count range of 20-100 particles per frame. A variety of NIST (Thermo Scientific 3000 Series) standards were analyzed, each the day prior to sample analysis. The system was cleaned between each sample and checked for any sample carryover using the PBS diluent. NTA measures EVs within a size range from about 30 nm to about 1,000 nm.
Samples were similarly prepared for nanoscale flow cytometry as for NTA. All samples were analyzed using the Apogee A50 flow cytometry platform. Light scatter was provided using the 405 nm laser (75 mW); GFP signal was generated using the 488 nm laser (50 mW, 535/35) and far red signal was generated using the 630 nm laser (75 mW, 680/35). All samples were analyzed for 60 seconds. Optimization was performed to insure single EVs were being analyzed and single events were triggered by light scatter only. The system was cleaned each day prior to sample analysis and a variety of silica and polystyrene standards (Apogee 1493 standards) processed for instrument set up and QC. The silica standards were used to assess the relative size range of EVs. Nanoscale flow cytometry measures EVs within a size range from about 100 nm to about 1,300 nm. […]
(In general: In flow cytometry, cells or beads pass a laser one at a time.)

In data set [3] the test system is CAD cells. In words: Cell viability after media collection (XTT assay). Particulars: various levels of CSPα expression. In kind it is cell-based. The method, then:
as §1
For orientation: Formazan colour is commonly taken as a measure of viable cells.

For the next data set, the system named is naive CAD cells. Nature of the data set: EV delivery of GFP-72Q huntingtin^exon1 cargo to naive recipient CAD cells (live cell fluorescence imaging). In kind it is cell-based. Particulars: conditioned media applied to naive cells; imaged 1-48 hours. Here is the method:
Images of live cells were taken with the EVOS FL Auto Imaging System. Images of donor cells were taken at the time of media collection. Images of recipient cells were taken between 1-48 hours. The intensity of the GFP-72Q huntingtin^exon1 varied among cells and a single slider was used until the on-screen brightness of the lowest intensity aggregate was satisfactory and used this setting to capture images in high-quality mode. Where indicated, after the 300×g for 5 minutes conditioned media spin to remove cell debris, 60 μl of Exo-Red (SBI) was incubated with 1 ml media containing EVs for 10 minutes at 37° C. to label the RNA EV cargo. 150 μl of exo-quick was added, the labelled EVs were placed on ice for 30 min and then centrifuged for 3 minutes at 20,000×g. The labelled EV pellet was resuspended in 1 ml of DMEM-F12 media and applied to target cells.

The conditions of data set [4]: previously shown; cited from earlier work.
Setting [5] is: cells express the protein, p<0.0001.
Where [6] appears, read: presence of CSPα, no resveratrol.

“β amyloid peptide: β amyloid peptide (Aβ, AggreSure™ obtained from AnaSpec)”: in the data set on CAD cells [1], the “secretion of GFP-tagged 72Q huntingtin^exon1 by CSPα, DnaJB2long and DnaJB6long” value is given as “increased the secretion of GFP-tagged 72Q huntingtin^exon1”.

B1: CSPα: cysteine string protein alpha, DnaJ domain-containing protein chaperone, myc-tagged, expressed in CAD cells (protein, UniProt Q9H3Z4 1-198, looked up)
DnaJ homolog subfamily C …: MADQRQRSLSTSGESLYHVLGLDKNATSDDIKKSYRKLALKYHPDKNPDNPEAADKFKEINNAHAILTDATKRNIYDKYGSLGLYVAEQFGEENVNTYFVLSSWWAKALFVFCGLLTCCYCCCCLCCCFNCCCGKCKPKAPEGEETEFYVSPEDLEAQLQSDEREATDTPIVIQPASATETTQLTADSHPSYHTDGFN
modifications: myc tag
notes: cysteine string protein alpha, DnaJ domain-containing protein chaperone, myc-tagged, expressed in CAD cells
B1: in the data set with CAD cells [2] (setting [5]), the “Secretion of EVs containing GFP-tagged 72Q huntingtin^exon1” value was “dramatically increased” and the “percentage of EVs containing GFP-72Q huntingtin^exon1 within the total EV pool” value was “dramatically increased”. Also, the “increase of export of EVs containing GFP-72Q huntingtin^exon1 within the 180-240 nm subpopulation” value in the data set on CAD cells [2] (p<0.0001) is more than 400%. In addition, in the data set on CAD cells [2] (setting [6]), the “EVs containing GFP cargo within the 180-240 nm subpopulation” value is 1%, the “EVs containing GFP cargo within the <180 nm subpopulation” value amounted to 0.06% and the “EVs containing GFP cargo within the >240 nm subpopulation” value was 1.6%. Besides, the “180-240 nm EV export of GFP-72Q huntingtin^exon1 as a function of cellular CSPα expression” value in the data set on CAD cells [2] (various levels of CSPα, parallel western blot) is reported as “correlates with increases in 180-240 nm EV export”. Besides, the “Cell viability after media collection” value in the data set with CAD cells [3] is “not influenced”.

B2: CSPαHPD-AAA: loss-of-function CSPα mutant that does not interact with Hsp70 ATPases (protein, UniProt Q9H3Z4 1-198, looked up, variant H43A P44A D45A)
DnaJ homolog subfamily C …: MADQRQRSLSTSGESLYHVLGLDKNATSDDIKKSYRKLALKYAAAKNPDNPEAADKFKEINNAHAILTDATKRNIYDKYGSLGLYVAEQFGEENVNTYFVLSSWWAKALFVFCGLLTCCYCCCCLCCCFNCCCGKCKPKAPEGEETEFYVSPEDLEAQLQSDEREATDTPIVIQPASATETTQLTADSHPSYHTDGFN
In the case of B2, the “GFP-72Q huntingtin^exon1 cargo / aggregates in recipient CAD cells after media application” value with naive CAD cells was “low levels of GFP signal at 24 hours”. Moreover, the “export of GFP-72Q huntingtin^exon1” value in data set [4] was “does not”.
